Assay results from a protein production outcome set (Wang et al. 2014).

assay: label from the status in PepcDB records

Row | Sequence | protein production
1 | MSVALPRSPDVDGSLSEAPNRIDVVTFGCRLNTYESEVMRREAESAGLGALQGGAVIFNTCAVTGEAVRQARQAIRKARRDNPGARIIVTGCAAQTEPEKFAAMDEVDLVLGNEEKLKANSYRALPDFGVNDTEKARVNDIFSVRETAGHMVDAIEGRARAFVQVQNGCDHRCTFCIIPYGRGNSRSVPMGAVVEQVKRLAGNGYAEIVLTGVDMTSFGADLPGAPKLGRLVKTILKQVPDVKRLRLSSIDSIEADDDLLDAIATEPRLMPHLHLSLQSGDDMILKRMKRRHLRDQSIRFCEDVRKLRPEIVFGADIIAGFPTETDAMFENSIKIVEECGLTHLHVFPFSPREGTPAARMPQVRREVVKQRAARLRAAGEAAYRRHLSSLPGTRQSILIERDGLGRTEGFTLAALGTGAPGEIVEATITGHDGARLNAVPLAARAA | failed
2 | MSVETQRESLLNAPALLFMSAVVLIAFWILFPRQPAFRDPANLSAKDALSVAYLRVLVQSDPGNAPLRLSFVQVLTEAGMTDEAVLAMEPLQNAPESGLTYEIRLAELKLALQQLYRHPPRDVEASLRRRIGELVPLLLRLADNDKESNQVVLLAEQFGEPSVVAETFEQLAGMQNETRQTKSRWLAFAAKQRLAAAQPRAAAQNFCRAFTFERIARKKTELAKACLGAYLQAGVDREALKAAMQILSAYSSSNADAQLLLLAADVAQPMGDRDHALVWLEQASAHLPADQRLAERVVRLQVSMGLLSEGLARAPMLRASLIPGSERQRLLAHLYDWNGQPDEALALWLSFARHKADEEAETRAFALAQAKPDNEAIVQLLEAVMSRRKLTTTEADAYVKAGLAVAQPSRVEKQLRRHAERFGNPPPILNALVEVLVLQGKPDAALTLYEDMPEIQDGRQRLALARLYEEAGNTQKSFQLLLRDIDSPPPASAEEYWLLLAKVSTQLGQDAYAGQAYEKALALRSNDVEILENLQRLALRHHDEKKSERLARYGWERLKRIEDLQRLMRFSWKRRNWDELDQWLEVAEKLPSAAQARDYWYFQSMRRMAHGEQSAARGALQEILKLQAADPEVTEAMIWLLLAYEKIDRVLLDSVVAPYRAQTASQSTVNPALAEALAAAEQGLGRPVQAAAWFLRSLSTRAGDFLWILALADNMEWAGCPAHANYARFQALEMFASRQNSRIEVKYPSRLAEYFFGSKYLPPKREGTEDAKKQEELQSIRDQWGFGGKLDNADYFALRREVERLELSQWKDFAKAVRNRNEREVERQLALISDHLKRQPAAASHPDMLPLSIDDVDRANRWLAGEPEPNPSDLATELDICRETLTKIREFPVNSEPAKR | failed
3 | MSVFTPLARPELETFLAPYGLGRLLDYQGIAAGSENTNYFISLEQGEFVLTLVERGPVQEMPFFIELLDVLHDANLPVPYALRTTDGQALRELAGKPALLQPRLPGKHISEPNTQHCVQIGELLANLHLATREQVLERKTDRGLDWMLSEGRNFLSHLGETQRALLEKSLQEIEDLKPQIMALPRANLHADLFRDNVLFEGTHLTGLIDFYNACSGPMLYDLAIALNDWCSRENGQLDAVRARALLGAYAGLRPFTAAESKLWATMLRIACVRFWLSRLIAAETFAGQDVLIHDPVEFEQRLAERQTPHIALPFAL | not failed
4 | MSVIKIEKALKLDKVIFVDVRTEGEYEEDHILNAINMPLFKNNEHNEVGTIYKMQGKHEAIQKGFDYVSYKLKDIYLQAAELALNYDNIVIYCARGGMRSGSIVNLLSSLGVNVYQLEGGYKAYRNFVLEYLRHVMDTK | not failed
5 | MSVKKERVDVLLVERGLIETREKAKRAIMAGLVYANEMRLDKPGEKISQDTEITVKGQVMPYVSRGGYKLEKALETFHLDLQDKVMIDIGSSTGGFTDCALQNGAKLSYALDVGYNQLAWKLRQDERVVVMERTNFRYVTPADLERGLPQFASIDVSFISLKLILPVLKTMLMPNGDVAALIKPQFEAGREQVGKKGIVRDRKVHEAVVEMIVEFALKEGYDVEGLTFSPITGGDGNIEFLIHLKWHGERENGENHSPISIEQVVTEAHEVLKQKGKGE | failed
6 | MSVLDISIIIANYNTEEFLRNCLNSIKSTVKNVKYEVIVTDNNSKDDSVTMIKNEFPWVKLIESKINGGFAYANNLAIKESSGKYIFLLNTDTVLLKDVIEKMVNYMDENKDVGLLGPKLLNRDMSHQTSVSGFPSFKREFYHIYKLKNILKIPILKKIIVAMSGKIGSKDVEQYMMNFKSIDEPREVQVLVGAALLVRRNVIDKIGMLDERYFMYYEEIDFCYQANKAGFKAVYYPNGEIIHYIGQAATKSRILEHHHHHH | not failed
7 | MSVLPCFSLMCSLSLGEVKAVKIKPMLARLQSAMGRDDLIDQMVLLPEPQKGQTTQSINLIVGYDASPNSHTALDIACWIAHQTRLATNQQVTVQAVYVVEDSNTKNRSNILSFAKRLPTIELPPSETKKSSTSVITQPKLTGIKSYLQTDTLTPLQEADRIIWQARTLAEEWQGSFKSHLRFGCVSTELRKVAEFEAADILFLGCKSVYHPLIETLGYNFPCAVLGIPECIDE | failed
8 | MSVPDNVYLIGTMNTADRSLAGLDIALRRRFDFVEMAPRPDKLTGVKVAEIDISAVLETMNRRIEVLLDREHRLGHAYFMSLENSNDLSRLSNIFRQQIIPLLQEYFFEDWQRIAWILNDHRKDERFRFIVPAPYSVDSLFGDTGQVAQDSKAWRMNEEAFHKPQSYLGLEHHHHHH | not failed
9 | MSVQKAVKSSHYEAESNMEQDIVRKAWVFKPSGLNFIWGGDSRYWVIPNEDRTPAELKKVSWLEVTGSYDKIEPGKTYRIGFKISFTADATGWDQAPVFMSAKIGKKGRTIWKRIKSVNNNFDKLKGGTGPVNIPDETDGRFEIFVSPKVAINQDTKLQFGLYEVWTGKWKTGLLIYEAFVEEV | failed
10 | MSVQLVKGVNLHVIPTEKYKTVRLLVRFNTRLNHETITKRTLLSSLMETNSLNYPNQVKLSERLAELYGASFGIGVSKKGNQHWFNISMNIVNDHYLQDSQVLAEAVDFLKEIIFAPNIQAGQFEAETFQREKENLKAYLESIVEDKQTYASLALQSVYFNQSEDQKIPSFGTVAALAEETAASLAAYYQKMLAEDQVDIFVLGDVNEAELVPLFKQLPFTPREEGKAAIFYNQPIRNVIEERTEREVLAQSKLNLAYNTDIYYGDSYYFALQVFNGIFGGFPHSKLFMNVREKEHLAYYASSSIDTFRGFMTVQTGIDGKNRNQVLRLISTELENIRLGKIRELEIEQTKAMLKNQYILALDNAGAWLEKEYLNELMPQTMLTAEEWIARINAVTIPEIQEVAKRLELQAIFFLEGETEND | not failed
11 | MSVSIAYLAVLLIWSTTPLGIVWSSESINPSLAVLLRMLIALVLGALVIKIRNIHIPWHKQAVKLYSFSALGIFGGMLCSYLSAAYLSSGIISLVFGLSPVISALLAKKILSEPNISGMRKFSMAISLIGLAVVCSDNFTLADDGIYGIIFILMAVFFFSLSGVLVKSVSLAIHPLATTVGALSVATPLFLVSWLLLDGTLPIETWQAKSLWATLYLGVFGSLIGFYAYFTVLQKLSASNVTLITLITPVIALTLGAVLNGEVINDKLILGAFMVLLGLSIYHFGHLLPRLKKKRARS | failed
12 | MSVTFSYLAETDYPVFTLGGSTADAARRLAASGCACAPVLDGERYLGMVHLSRLLEGRKGWPTVKEKLGEELLETVRSYRPGEQLFDNLISVAAAKCSVVPLADEDGRYEGVVSRKRILGFLAERI | not failed
13 | MSVTFSYLAETDYPVFTLGGSTADAARRLAASGCACAPVLDGERYLGMVHLSRLLEGRKGWPTVKEKLGEELLETVRSYRPGEQLFDNLISVAAAKCSVVPLADEDGRYEGVVSRKRILGFLAERIHSGEGGLTMEIEVPPTGAKLSEIIETIEKNDASILSFTSWTTGEGRIIFFRVATHDFFRLVRNMENYGYLIRYHSAFPNAGYDELREKALEFIHYMDM | not failed
14 | MSVTLVNNENNERYEFETIESTRGPKAVDFSKLFETTGFFSYDPGYSSTAGCQSKISYVNGKKGELYYRGHRIEDLVAKYKYVDVCKLLLTGELPKNQDESLEFELELRHRSFVHESLLNMFSAFPSNAHPMAKLSSGVSILSTLYSTHQNMHTEEDYQTMARRIVAKIPTLAAICYRNEVGAPIIYPDIARSYVENILFMLRGYPYSRLKHTTQGEVEITPLEVEAFDKILTLHADHSQNASSTTVRNVASTGVHPYAAISAGISALWGHLHGGANEKVLLQLEEIGDVKNVDKYIARVKDKNDNFKLMGFGHRVYKSYDPRAKILKGLKDELHQKGVKMDERLSEIAAKVEEIALKDEYFIERNLYPNVDFYSGTILRALKIPVRFFTPVFVIGRTVGWCAQLLEHVKSPQARITRPRQVYVGD | failed
15 | MSVVPVADVLQGRVAVDQEVTVRGWVRTRRDSKAGISFLAVYDGSCFDPVQAVINNSLPNYNEEVLHLTTGCSVVVTGKVVASPGQGQSFEIQATKVEVAGWVEDPDTYPMAAKRHSIEYLREVAHLRPRTNLIGAVARVRHTLAQALHRFFDEQGFFWVSTPLITASDTEGAGEMFRVSTLDLENLPRNDQGRVDFDKDFFGKESFLTVSGQLNGETYACALSKIYTFGPTFRAENSNTSRHLAEFWMLEPEVAFADLEDNARLAEAMLKYVFNAVLEERADDMKFFAERVDKDAIARLERFVSTDFAQVDYTDAVAILERCGKTFENPVFWGVDLSSEHERYLAEEHFKAPVVVKNYPKEIKAFYMRLNEDGKTVAAMDVLAPGIGEIIGGSQREERLDVLDARMAEMGLNKEDYWWYRDLRRYGTVPHSGFGLGFERLIAYVTGVQNVRDVIPFPRTPRNASF | failed
16 | MSVYLVALIGILILGLYILDLRKHKITTREIIMIGLSVAISYVLYMIPLVRYPQGGGITFFSMLPIMLLSLVYGRTVGVTGGLIFGLLKILNGAFIVHPVQFLLDYILSNMALGLAGSFGIDKKYKIFLGSLMAGSISTFVSIVSGVIFFGQYAPPGMNLWIYSIIYNTSSAGVESLLTAIVITIMPIKMLAKRMKPINNI | failed
17 | MSWESINSKDLLSIPPSQNLSATRLLTSPDGSRYLLENSSDLCHLDESFSRLAGYGSSPDVGSRSVWASQALLRSGSVISCFLSCQQSLRQYIAKRKIERGRRLYEQNNQTEAVRTWRSALKGTCQREDCFQLLGYLYQAHMDWGKFREAIEFSHQQLGISEELDSPNMRAETYLNLSRAHASLGGLERSLSYARHSLYNECGTKCRSGLVHLTVARVYLEMGGFSRALEGLQGAYKIATAIGDPSLELQVYVALSELFGRLQDNDKSATYASKAYDLSRSLQLGDLNSCHHRAALLRMAVSLRKQGELGDAQDYCKEATKLSLISGDQATYTRSIRVMGDIYRNKMDMDRAFRQYEQAMGTSASLGDRMAQMEAMDGAARCLETLRLQNKICNCRPLEFNTRLLEVASSIGAKFLVRKIRCRLALIYRALGDEDQYNTHFRLANQTDAALGLNCGACGELLGLRPENLEALPCAHILHARCAYEILRRREKNAPRSCPACNKLISSRTHFCGSVPVESESTDRCVTAASTFNTNSLSVDGLLGINSDILLPSAAFCYVKNPALDTENSALLSPKVIYHSNLSLASLSMRASSLTIDSGQNVTSSV | failed
18 | MSWLFSTLVFFLTLLTAGIALYLITARRYQSSNSVANSYDQWTEDGILEFYWGEHIHLGHYGSPPQRKDFLVAKSDFVHEMVRWGGLDKLPPGTTLLDVGCGIGGSSRILARDYGFAVTGITISPQQVQRAQELTPQELNAQFLVDDAMALSFPDNSFDVVWSIEAGPHMPDKAIFAKELMRVLKPGGIMVLADWNQRDDRQKPLNFWEKPVMQQLLDQWSHPAFSSIEGFSELLAATGLVEGEVITADWTKQTLPSWLDSIWQGIVRPEGLVRFGLSGFIKSLREVPTLLLMRLAFGTGLCRFGMFRALRADTVRSSAEQTSAIKVAQK | failed
